Reference: PMC5021521, “Coordinated recruitment of Spir actin nucleators and myosin V motors to Rab11 vesicle membranes” (eLife, 2016)

Tests used:
[1] = test system: GST-Rab11a-Q70L; test: GST-pulldown from HEK293 lysates; type: binding; settings: N = 2; for pulldown by GST-Rab11a-Q70L in words, with Q1753R mutant MyoVa: HEK293 lysates with GFP-MyoVa-Q1753R in place of GFP-MyoVa-FL
Procedure: HEK293 cells were co-transfected with expression vectors encoding Myc-Spir-2-FL, mStrawberry-FMN2-FH2-FSI, eGFP-MyoVa-D-FL and eGFP-MyoVa-D-Q1753R, respectively. 24 hr post transfection, cells were lysed in lysis buffer (25 mM Tris-HCl pH 7.4, 150 mM NaCl, 5 mM MgCl2, 10% (v/v) glycerol, 0.1% (v/v) Nonidet P-40, 1 mM PMSF, protease inhibitor cocktail) and centrifuged at 20,000 x g, 4°C, 20 min to remove insoluble debris. For GST-pulldown assays 65 µg GST-Rab11a-Q70L protein (25 µg GST control) was coupled to GSH-Sepharose 4B beads (1:1 suspension) for 1 hr, 4°C on a rotating wheel. Beads were washed twice with pulldown buffer (25 mM Tris-HCl pH 7.4, 150 mM NaCl, 5 mM MgCl2, 10% (v/v) glycerol, 0.1% (v/v) Nonidet P-40) and subsequently incubated with the cell lysates for 2 hr at 4°C on a rotating wheel. Beads were washed four times with pulldown buffer and bound proteins were eluted with 1x Laemmli buffer and denatured at 95°C for 10 min, then were analyzed by immunoblotting.

[2] = test system: GFP-MyoVb-GTD; test: Co-immunoprecipitation from HEK293 cells; type: binding, Homo sapiens; settings: anti-Myc co-IP, HEK293, immunoblot
Procedure: HEK293 cells were transfected with expression vectors encoding Myc-tagged Spir proteins and GFP-tagged myosin Va and myosin Vb fragments. 48 hr post transfection, cells were lysed in lysis buffer (25 mM Tris-HCl pH 7.4, 150 mM NaCl, 5 mM MgCl2, 10% (v/v) glycerol, 0.1% (v/v) Nonidet P-40, 1 mM Phenylmethylsulfonylfluorid (PMSF; Sigma-Aldrich), protease inhibitor cocktail (complete mini, EDTA-free; Roche, Penzberg, Germany)) and centrifuged at 20,000 x g, 4°C, 20 min to remove insoluble debris. The clarified supernatant was incubated with 4 µg anti-c-Myc antibody (9E10, mouse monoclonal; Santa Cruz Biotechnology; RRID: AB_627268) for 1 hr on ice. Subsequently, 40 µl Protein G-Agarose beads (1:1 suspension; Roche) were added and incubated for 2 hr at 4°C on a rotating wheel. Beads were washed with pulldown buffer (25 mM Tris-HCl pH 7.4, 150 mM NaCl, 5 mM MgCl2, 10% (v/v) glycerol, 0.1% (v/v) Nonidet P-40). Bound proteins were eluted with 1x Laemmli buffer and denatured for 10 min at 95°C, then analyzed by immunoblotting.

[3] = test system: HeLa cells; test: Subcellular localization by fluorescence microscopy; type: cell-based
Procedure: (§1) HeLa cells were seeded on microscope cover glasses and transfected with Myc-epitope-tagged Spir-2 proteins and fluorescently-tagged MyoV and Rab11 proteins as described above. Cells were fixed with paraformaldehyde (3.7% in 1x PBS) for 20 min at 4°C and subsequently permeabilized using 0.2% Triton X-100 (in 1x PBS) for 3.5 min, room temperature. Cells were incubated with anti-c-Myc antibody (9E10, mouse monoclonal, 2 µg/ml, Santa Cruz Biotechnology; RRID: AB_627268) for 1 hr at room temperature and conjugated anti-mouse secondary antibodies (Cy5; from donkey, 3.25 µg/ml, Dianova (RRID: AB_2340820) and TRITC; from donkey, 3.125 µg/ml, Dianova (RRID: AB_2340767)) for 1 hr at room temperature avoiding exposure to light. Finally, cells were mounted on microscope slides with Mowiol and analyzed with a Leica AF6000LX fluorescence microscope, equipped with a Leica HCX PL APO 63x/1.3 GLYC objective and a Leica DFC350 FX digital camera (1392 × 1040 pixels, 6.45 × 6.45 µm pixel size). 3D stacks were recorded and processed with the Leica deconvolution software module. In case of the MyoVa autoregulation/activation experiments, we quantified the MyoVa expression levels. […] In order to clearly distinguish between vesicular and cytoplasmic MyoVa localization, we imaged either high or low expressing cells and determined the sum of pixel gray values per cell as a measure for the MyoVa expression levels. Based on that, we only used cells for the autoregulation analysis having a sum of pixel gray values less than 20 × 10^6 for the expression of GFP-MyoVa-D-FL. Images were recorded using the Leica LASX software and further processed with Adobe Photoshop and subsequently assembled with Adobe Illustrator.

[4] = test system: mStrawberry-Rab11a; test: Colocalization with Rab11 in HeLa cells, Pearson's correlation coefficient; type: cell-based, Mus musculus
Procedure: as §1
The extent of colocalization of Rab11, Spir-2 and MyoVa was analyzed using the ImageJ (V2.0.0) plug-in Coloc 2. Here, the colocalization rate is indicated by the Pearson’s Correlation Coefficient (PCC) as a statistical measure to unravel a linear correlation between the intensity of different fluorescent signals. […] To take the noise of each image into account and to gain an objective evaluation of PCC significance, a Costes significance test was performed. Therefore, the pixels in one image were scrambled randomly and the correlation with the other (unscrambled) image was measured. […] Statistical data analysis was performed using SPSS 22 (IBM, Armonk, NY, USA).

Straw-FMN2-FH2-FSI: mStrawberry-tagged C-terminal formin-2, aa 1135 - 1578
pulldown by GST-Rab11a-Q70L in words ([1]; HEK293 lysates over-expressing Myc-Spir-2, Straw-FMN2-FH2-FSI and GFP-MyoVa-FL): able to pull down
pulldown by GST-Rab11a-Q70L in words, with Q1753R mutant MyoVa [1]: Only faint

GFP-MyoVa-Q1753R: eGFP-tagged full-length MyoVa with Q1753R mutation, which disrupts interaction with Rab11
pulldown by GST-Rab11a-Q70L in words, with Q1753R mutant MyoVa [1]: but not the GFP-MyoVa-Q1753R mutant

B1: 1 423: N-terminal Spir-2 deletion mutant (protein)
chain: ARAGSCGGAAAGAGRPEPWELSLEEVLKAYEQPLNEEQAWAVCFQGCRGLRGSPGRRLRDTGDLLLRGDGSVGAREPEAAEPATMVVPLASSEAQTVQSLGFAIYRALDWGLDESEERELSPQLERLIDLMANNDSEDSGCGAADEGYGGPEEEEEAEGVPRSVRTFAQAMRLCAARLTDPRGAQAHYQAVCRALFVETLELRAFLARVREAKEMLQKLREDEPHLETPRAELDSLGHTDWARLWVQLMRELRRGVKLKKVQEQEFNPLPTEFQLTPFEMLMQDIRARNYKLRKVMVDGDIPPRVKKDAHELILDFIRSRPPLKQVSERRLRPLPPKQRSLHEKILEEIKQERRLRPVRGEGWAARGFGSLPCILNACSGDAKSTSCINLSVTDAGGSAQRPRPRVLLKAPTLAEMEEMNTS
modifications: left off: Myc epitope, end not stated, kept
notes: N-terminal Spir-2 deletion mutant
co-precipitation / interaction with MyoVb-GTD in words [2]: show myosin V co-precipitation

B2: Spir-1: Myc-hs-Spir1 aa 2 - 757, full-length (protein)
chain: MANTVEADGSKDEGYEAADEGPEDEDGEKRSISAIRSYQDVMKICAAHLPTESEAPNHYQAVCRALFAETMELHTFLTKIKSAKENLKKIQEMEKGDESSTDLEDLKNADWARFWVQVMRDLRNGVKLKKVQQRQYNPLPIEYQLTPYEMLMDDIRCKRYTLRKVMVNGDVPPRLKKSAHEVILDFIRSRPPLNPVSARKLKPTPPRPRSLHERILEEIKAERKLRPVSPEEIRRSRLVRPLSMSHSFDLSDVTTPESPKNVGESSMVNGGLTSQTKENGLSAAQQGSAQRKRLLKAPTLAELDSSDSEEEKSLHKSTSSSSASPSLYEDPVLEAMCSRKKPPKFLPISSTPQPERRQPPQRRHSIEKETPTNVRQFLPPSRQSSRSLEEFCYPVECLALTVEEVMHIRQVLVKAELEKYQQYKDVYTALKKGKLCFCCRTRRFSFFTWSYTCQFCKRPVCSQCCKKMRLPSKPYSTLPIFSLGPSALQRGESCSRSEKPSTSHHRPLRSIARFSTKSRSVDKSDEELQFPKELMEDWSTMEVCVDCKKFISEIISSSRRSLVLANKRARLKRKTQSFYMSSAGPSEYCPSERTINEI
co-precipitation / interaction with MyoVb-GTD in words [2]: did interact with the GFP-MyoVb-GTD

B3: 398 714: C-terminal Spir-2 deletion mutant (protein)
chain: GSAQRPRPRVLLKAPTLAEMEEMNTSEEEESPCGEVTLKRDRSFSEHDLAQLRSEVASGLQSATHPPGGTEPPRPRAGSAHVWRPGSRDQGTCPASVSDPSHPLLSNRGSSGDRPEASMTPDAKHLWLEFSHPVESLALTVEEVMDVRRVLVKAEMEKFLQNKELFSSLKKGKICCCCRAKFPLFSWPPSCLFCKRAVCTSCSIKMKMPSKKFGHIPVYTLGFESPQRVSAAKTAPIQRRDIFQSLQGPQWQSVEEAFPHIYSHGCVLKDVCSECTSFVADVVRSSRKSVDVLNTTPRRSRQTQSLYIPNTRTLDFK
modifications: left off: Myc epitope, end not stated, kept
notes: C-terminal Spir-2 deletion mutant
co-precipitation / interaction with MyoVb-GTD in words [2]: show myosin V co-precipitation

B4: Myc-Spir-2-KIND-WH2: Myc-hs-Spir2-KIND-WH2 aa 2 - 410 (protein)
chain: ARAGSCGGAAAGAGRPEPWELSLEEVLKAYEQPLNEEQAWAVCFQGCRGLRGSPGRRLRDTGDLLLRGDGSVGAREPEAAEPATMVVPLASSEAQTVQSLGFAIYRALDWGLDESEERELSPQLERLIDLMANNDSEDSGCGAADEGYGGPEEEEEAEGVPRSVRTFAQAMRLCAARLTDPRGAQAHYQAVCRALFVETLELRAFLARVREAKEMLQKLREDEPHLETPRAELDSLGHTDWARLWVQLMRELRRGVKLKKVQEQEFNPLPTEFQLTPFEMLMQDIRARNYKLRKVMVDGDIPPRVKKDAHELILDFIRSRPPLKQVSERRLRPLPPKQRSLHEKILEEIKQERRLRPVRGEGWAARGFGSLPCILNACSGDAKSTSCINLSVTDAGGSAQRPRPRVLLK
modifications: left off: Myc epitope, end not stated, kept
subcellular localization in words ([3]; co-expression of eGFP-MyoVa-FL and N-terminal Spir-2 fragment): both cytosolic
subcellular localization in words ([3]; single expression): even cytoplasmic and nuclear localization

B5: Myc-Spir2-SB-FYVE: Myc-hs-Spir2-SB-FYVE aa 438 - 714, lacks the MyoV binding motif (protein)
chain: DRSFSEHDLAQLRSEVASGLQSATHPPGGTEPPRPRAGSAHVWRPGSRDQGTCPASVSDPSHPLLSNRGSSGDRPEASMTPDAKHLWLEFSHPVESLALTVEEVMDVRRVLVKAEMEKFLQNKELFSSLKKGKICCCCRAKFPLFSWPPSCLFCKRAVCTSCSIKMKMPSKKFGHIPVYTLGFESPQRVSAAKTAPIQRRDIFQSLQGPQWQSVEEAFPHIYSHGCVLKDVCSECTSFVADVVRSSRKSVDVLNTTPRRSRQTQSLYIPNTRTLDFK
modifications: left off: Myc epitope, end not stated, kept
PCC ([4]; GFP-MyoVa-CC-GTD + mStraw-Rab11 + Myc-Spir2-SB-FYVE (first block, r34), cell 1): 0.63
PCC ([4]; GFP-MyoVa-CC-GTD + mStraw-Rab11 + Myc-Spir2-SB-FYVE (first block, r34), cell 2): 0.74
PCC ([4]; GFP-MyoVa-CC-GTD + mStraw-Rab11 + Myc-Spir2-SB-FYVE (first block, r34), cell 3): 0.59
PCC ([4]; GFP-MyoVa-CC-GTD + mStraw-Rab11 + Myc-Spir2-SB-FYVE (first block, r34), cell 4): 0.23
Pearson's correlation coefficient (PCC), mean ([4]; GFP-MyoVa-CC-GTD + mStraw-Rab11 + Myc-Spir2-SB-FYVE (first block, r34), mean of 4 cells): 0.5475
colocalization with Rab11 in words ([4]; co-expression of Spir-2-SB-FYVE, MyoVa-CC-GTD and Rab11a, HeLa cells): significant reduction
